Results from patent publication US20200078441A1.

Legend:
[1] = biological target: T1, recombinant His-tagged AGO2 protein (human Argonaute 2, baculovirus-expressed) (human), Q9UKV8; assay: TAT-11 peptide
[2] = biological target: T1, recombinant His-tagged AGO2 protein …
[3] = biological target: T1, recombinant His-tagged AGO2 protein …; assay: TAT-26 peptide

T1 sequence (Q9UKV8 other isoform, or with tags, fused parts or gaps limits assumed): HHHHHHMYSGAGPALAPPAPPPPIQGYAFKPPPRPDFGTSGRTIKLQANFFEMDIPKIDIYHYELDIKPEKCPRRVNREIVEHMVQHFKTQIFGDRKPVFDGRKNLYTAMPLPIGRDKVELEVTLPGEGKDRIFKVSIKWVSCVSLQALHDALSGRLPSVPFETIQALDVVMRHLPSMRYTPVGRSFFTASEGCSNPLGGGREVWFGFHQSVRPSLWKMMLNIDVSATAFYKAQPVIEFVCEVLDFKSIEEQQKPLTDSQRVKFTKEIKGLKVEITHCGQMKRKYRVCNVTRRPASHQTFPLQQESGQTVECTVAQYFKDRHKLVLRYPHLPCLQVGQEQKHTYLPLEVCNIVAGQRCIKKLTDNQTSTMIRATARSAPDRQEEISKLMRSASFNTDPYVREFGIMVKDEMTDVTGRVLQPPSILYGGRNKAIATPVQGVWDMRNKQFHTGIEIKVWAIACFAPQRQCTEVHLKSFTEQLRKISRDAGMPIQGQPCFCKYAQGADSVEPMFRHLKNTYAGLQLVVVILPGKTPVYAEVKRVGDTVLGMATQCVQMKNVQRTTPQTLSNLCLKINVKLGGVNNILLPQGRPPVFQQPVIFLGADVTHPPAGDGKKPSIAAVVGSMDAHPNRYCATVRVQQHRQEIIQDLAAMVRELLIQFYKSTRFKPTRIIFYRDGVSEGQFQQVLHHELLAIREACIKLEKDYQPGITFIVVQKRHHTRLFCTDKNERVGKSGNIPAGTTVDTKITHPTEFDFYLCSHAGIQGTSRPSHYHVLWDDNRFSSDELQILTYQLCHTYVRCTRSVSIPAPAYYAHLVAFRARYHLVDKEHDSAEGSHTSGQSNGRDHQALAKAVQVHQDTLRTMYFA

Row | Binder | Kd [1] [µM] | koff [2] [s⁻¹] | kon [2] [M⁻¹ s⁻¹] | Kd [3] [µM]
1 | YQFPEFRVERTPLPSGRKKRRQRRRPPQ (modifications not checked) [TAT-11 decoy peptide (MSI1 peptide 11 with HIV-1 Tat (48-60) cell-penetrating peptide)] | 3.33 | 0.00274 | 823 | 
2 | HSLGGPLIATAFTNGGRKKRRQRRRPPQ (modifications not checked) [TAT-26 decoy peptide (MSI1 peptide 26 with HIV-1 Tat (48-60) cell-penetrating peptide)] |  | 0.00226 | 488 | 4.63
